Residue numbers refer to the chain shown, from its start.
T1: human neutrophil elastase (human, UniProt P08246 30-247, limits assumed)
T1 construct: also called HNE
T1 sequence (looked up): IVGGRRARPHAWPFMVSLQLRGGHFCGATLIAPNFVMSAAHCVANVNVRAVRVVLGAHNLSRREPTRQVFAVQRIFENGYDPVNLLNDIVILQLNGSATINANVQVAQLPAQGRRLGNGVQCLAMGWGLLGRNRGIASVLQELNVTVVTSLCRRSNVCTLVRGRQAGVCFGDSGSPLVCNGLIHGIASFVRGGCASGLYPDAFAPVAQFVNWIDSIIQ

B1: SLPI mutein Phe 72 (other, human, UniProt P03973 26-132, looked up)
chain: SGKSFKAGVCPPKKSAQCLRYKKPECQSDWQCPGKKRCCPDTCGIKCLDPVDTPNPTRRKPGKCPVTYGQCFMLNPPNFCEMDGQCKRDLKCCMGMCGKSCVSPVKA
notes: mature; also called Phe72 mutein
B2: serine leukocyte protease inhibitor (SLPI) (other, human, UniProt P03973 26-132, looked up)
chain: B1 chain with F72L
modifications: the tracer *SLPI carried I-125 (Bolton Hunter reagent in Examples 12-16, Iodogen in Example 19); positions not given
notes: mature; labelled and cold SLPI are treated as one molecule; also called *SLPI (radiolabelled); cold SLPI
B3: cathepsin G (protein)
chain: IIGGRESRPHSRPYMAYLQIQSPAGQSRCGGFLVREDFVLTAAHCWGSNINVTLGAHNIQRRENTQQHITARRAIRHPQYNQRTIQNDIMLLQLSRRVRRNRNVNPVALPRAQEGLRPGTLCTVAGWGRVSMRRGTDTLREVQLRVQRDRQCLRIFGSYDPRRQICVGDRRERKAAFKGDSGGPLLCNNVAHGIVSYGKSSGVPPEVFTRVSSFLPWIRTTMRS

Legend:
[1] = target: SLPI binding sites on U937 cells (human monocyte cell line; intact cells, PMA-induced cells or plasma membranes) (human); test: competition with 125I-SLPI, intact U937 cells, competitor at 0.80 nM
[2] = target: SLPI binding sites on U937 cells (human monocyte cell line; intact cells, PMA-induced cells or plasma membranes) (human); test: competition with 125I-SLPI, U937 plasma membranes, competitor at 0.800 nM (second GLY72 row)
[3] = target: SLPI binding sites on U937 cells (human monocyte cell line; intact cells, PMA-induced cells or plasma membranes) (human); test: competition with 125I-SLPI, intact U937 cells, Kd by Cheng-Prusoff
[4] = target: SLPI binding sites on HuT78 cells (human T cell line) (human); test: competition with 125I-SLPI, intact HuT78 cells, competitor at 84 nM
[5] = target: SLPI binding sites on HuT78 cells (human T cell line) (human); test: competition with 125I-SLPI, intact HuT78 cells, competitor at 0.80 nM
[6] = target: SLPI binding sites on HuT78 cells (human T cell line) (human); test: competition with 125I-SLPI, intact HuT78 cells, competitor at 2.6 nM
[7] = target: SLPI binding sites on U937 cells (human monocyte cell line; intact cells, PMA-induced cells or plasma membranes) (human); test: competition with 125I-SLPI, U937 plasma membranes, competitor at 268 nM
[8] = target: SLPI binding sites on U937 cells (human monocyte cell line; intact cells, PMA-induced cells or plasma membranes) (human); test: competition with 125I-SLPI, intact U937 cells, competitor at 26 nM
[9] = target: SLPI binding sites on U937 cells (human monocyte cell line; intact cells, PMA-induced cells or plasma membranes) (human); test: competition with 125I-SLPI, intact U937 cells, competitor at 8.2 nM
[10] = target: SLPI binding sites on U937 cells (human monocyte cell line; intact cells, PMA-induced cells or plasma membranes) (human); test: competition with 125I-SLPI, U937 plasma membranes, competitor at 2750 nM
[11] = target: SLPI binding sites on U937 cells (human monocyte cell line; intact cells, PMA-induced cells or plasma membranes) (human); test: competition with 125I-SLPI, U937 plasma membranes, competitor at 0 nM
[12] = target: SLPI binding sites on U937 cells (human monocyte cell line; intact cells, PMA-induced cells or plasma membranes) (human); test: competition with 125I-SLPI, U937 plasma membranes, competitor at 2750 nM (second GLY72 row)
[13] = target: SLPI binding sites on U937 cells (human monocyte cell line; intact cells, PMA-induced cells or plasma membranes) (human); test: competition with 125I-SLPI, intact U937 cells, competitor at 270 nM
[14] = target: SLPI binding sites on U937 cells (human monocyte cell line; intact cells, PMA-induced cells or plasma membranes) (human); test: competition with 125I-SLPI, intact U937 cells, competitor at 84 nM
[15] = target: SLPI binding sites on HuT78 cells (human T cell line) (human); test: competition with 125I-SLPI, intact HuT78 cells, competitor at 2750 nM
[16] = target: SLPI binding sites on U937 cells (human monocyte cell line; intact cells, PMA-induced cells or plasma membranes) (human); test: competition with 125I-SLPI, intact U937 cells, competitor at 860 nM
[17] = target: SLPI binding sites on U937 cells (human monocyte cell line; intact cells, PMA-induced cells or plasma membranes) (human); test: competition with 125I-SLPI, intact U937 cells, competitor at 2.6 nM
[18] = target: SLPI binding sites on U937 cells (human monocyte cell line; intact cells, PMA-induced cells or plasma membranes) (human); test: competition with 125I-SLPI, U937 plasma membranes, competitor at 8.20 nM (second GLY72 row)
[19] = target: SLPI binding sites on HuT78 cells (human T cell line) (human); test: competition with 125I-SLPI, intact HuT78 cells, Kd by Cheng-Prusoff
[20] = target: SLPI binding sites on U937 cells (human monocyte cell line; intact cells, PMA-induced cells or plasma membranes) (human); test: competition with 125I-SLPI, U937 plasma membranes, competitor at 268 nM (second GLY72 row)
[21] = target: SLPI binding sites on U937 cells (human monocyte cell line; intact cells, PMA-induced cells or plasma membranes) (human); test: competition with 125I-SLPI, intact U937 cells, competitor at 2750 nM
[22] = target: SLPI binding sites on HuT78 cells (human T cell line) (human); test: competition with 125I-SLPI, intact HuT78 cells, competitor at 8.2 nM
[23] = target: SLPI binding sites on U937 cells (human monocyte cell line; intact cells, PMA-induced cells or plasma membranes) (human); test: competition with 125I-SLPI, U937 plasma membranes, competitor at 83.9 nM (second GLY72 row)
[24] = target: SLPI binding sites on U937 cells (human monocyte cell line; intact cells, PMA-induced cells or plasma membranes) (human); test: competition with 125I-SLPI, U937 plasma membranes, competitor at 83.9 nM
[25] = target: SLPI binding sites on U937 cells (human monocyte cell line; intact cells, PMA-induced cells or plasma membranes) (human); test: competition with 125I-SLPI, U937 plasma membranes, Kd by Cheng-Prusoff
[26] = target: SLPI binding sites on U937 cells (human monocyte cell line; intact cells, PMA-induced cells or plasma membranes) (human); test: competition with 125I-SLPI, intact U937 cells, competitor at 0.078 nM
[27] = target: SLPI binding sites on U937 cells (human monocyte cell line; intact cells, PMA-induced cells or plasma membranes) (human); test: competition with 125I-SLPI, U937 plasma membranes, competitor at 2.56 nM
[28] = target: SLPI binding sites on U937 cells (human monocyte cell line; intact cells, PMA-induced cells or plasma membranes) (human); test: competition with 125I-SLPI, U937 plasma membranes, competitor at 2.56 nM (second GLY72 row)
[29] = target: SLPI binding sites on U937 cells (human monocyte cell line; intact cells, PMA-induced cells or plasma membranes) (human); test: competition with 125I-SLPI, U937 plasma membranes, competitor at 0 nM (second GLY72 row)
[30] = target: SLPI binding sites on U937 cells (human monocyte cell line; intact cells, PMA-induced cells or plasma membranes) (human); test: competition with 125I-SLPI, intact U937 cells, competitor at 0 nM
[31] = target: SLPI binding sites on HuT78 cells (human T cell line) (human); test: competition with 125I-SLPI, intact HuT78 cells, competitor at 0 nM
[32] = target: SLPI binding sites on U937 cells (human monocyte cell line; intact cells, PMA-induced cells or plasma membranes) (human); test: competition with 125I-SLPI, intact U937 cells, competitor at 0.25 nM
[33] = target: SLPI binding sites on U937 cells (human monocyte cell line; intact cells, PMA-induced cells or plasma membranes) (human); test: competition with 125I-SLPI, U937 plasma membranes, competitor at 0.800 nM
[34] = target: SLPI binding sites on U937 cells (human monocyte cell line; intact cells, PMA-induced cells or plasma membranes) (human); test: competition with 125I-SLPI, intact U937 cells, competitor at 0.024 nM
[35] = target: SLPI binding sites on U937 cells (human monocyte cell line; intact cells, PMA-induced cells or plasma membranes) (human); test: competition with 125I-SLPI, U937 plasma membranes, competitor at 8.20 nM
[36] = target: T1, human neutrophil elastase; test: BIAcore, immobilized Phe72 mutein, monoS fractions of CHAPS-solubilized U937 membranes; identity by comigration
Text: The BIAcore analytical system is available from Pharmacia Biosensor AB, Uppsala, Sweden.

[37] = target: the molecule itself; test: DSS crosslinking of 2 µM 125I-SLPI in the absence of virus, reducing SDS-PAGE, phosphor imager
Experimental: Incubation was stopped by addition of Laemmli sample buffer. […] The volume of the parallel sample that was loaded on the gel was 5 times larger than the volume of the virus-containing samples.

[38] = target: HIV-1 envelope protein gp120

Molecule | % *SLPI BOUND [1] [%] | Kd [3] [nM] | % *SLPI BOUND [4] [%] | % *SLPI BOUND [5] [%] | % *SLPI BOUND [6] [%] | CPM *SLPI BOUND [7] [cpm] | % *SLPI BOUND [9] [%] | CPM *SLPI BOUND [10] [cpm] | CPM *SLPI BOUND [11] [cpm] | % *SLPI BOUND [14] [%] | % *SLPI BOUND [15] [%] | % *SLPI BOUND [17] [%] | Kd [19] [nM] | % *SLPI BOUND [21] [%] | % *SLPI BOUND [22] [%] | CPM *SLPI BOUND [24] [cpm] | Kd [25] [nM] | CPM *SLPI BOUND [27] [cpm] | % *SLPI BOUND [30] [%] | % *SLPI BOUND [31] [%] | also measured
SLPI mutein Gly 72 (from UniProt P03973 26-132) | 116 | 400 | 110 | 108 | 105 | 2840 | 117 | 1780 | 18700 | 101 | 28 | 115 | 200 | 28 | 85 | 3710 | 5 | 12000 | 131 | 100 | CPM *SLPI BOUND [2]: 14000 cpm; % *SLPI BOUND [8]: 112%; CPM *SLPI BOUND [12]: 1430 cpm; % *SLPI BOUND [13]: 75%; % *SLPI BOUND [16]: 53%; CPM *SLPI BOUND [18]: 7300 cpm; CPM *SLPI BOUND [20]: 2530 cpm; CPM *SLPI BOUND [23]: 3940 cpm; % *SLPI BOUND [26]: 118%; CPM *SLPI BOUND [28]: 11300 cpm; CPM *SLPI BOUND [29]: 18700 cpm; % *SLPI BOUND [32]: 120%; CPM *SLPI BOUND [33]: 14700 cpm; % *SLPI BOUND [34]: 116%; CPM *SLPI BOUND [35]: 7210 cpm
B1 | 77 | 2 | 36 | 69 | 90 | 2580 | 22 | 1540 | 18700 | 4 | 1 | 51 | 3 | 5 | 57 | 1660 | 1 | 8920 | 94 | 100 | binding result [36]: binds; CPM *SLPI BOUND [33]: 12400 cpm; CPM *SLPI BOUND [35]: 4260 cpm
B2 | – | – | – | – | – | – | – | – | – | – | – | – | – | – | – | – | – | – | – | – | binding result [37]: binds
B3 | – | – | – | – | – | – | – | – | – | – | – | – | – | – | – | – | – | – | – | – | proteolytic cleavage of gp120 (Western blot) [38]: gp120 (400 nM) was also incubated at 37° for 30 min, with 10 nM cathepsin G and yielded different bands

Reference: patent publication US6869925 (Amgen, dated 2005)
